The results in this text go back to publication PMC11889585, “Characterization of the putative yeast mitochondrial triacylglycerol lipase Tgl2” (The Journal of Biological Chemistry, 2025).

Usually stoichiometry N stands for the number of molecules, sites or subunits per partner or assembly.

The data set deals with the molecule itself. Description: non-reducing SDS-PAGE with immunoblot; whole cell lysate, crude or isolated mitochondria of yeast (tgl2Δ, yme1Δ, other deletion strains) expressing HA-tagged Tgl2 variants; reducing agents omitted during SDS-PAGE; anti-HA immunodecoration; dimer-sized band.

B1: N terminally hemagglutinin (HA) tagged Tgl2 (natural protein, S. cerevisiae, UniProt P54857 1-326, looked up)
chain: MKNDNKANDIIIDSVKVPDSYKPPKNPIVFCHGLSGFDKLILIPSVFHLTNLISNSIVHNMAENFMQDDEDKSDNKYTNLLEIEYWIGVKKFLQSKGCTVITTKVPGFGSIEERAMALDAQLQKEVKKIESKDKRHSLNLIAHSMGGLDCRYLICNIKNRNYDILSLTTISTPHRGSEMADYVVDLFENLNALRVSQKILPICFYQLTTAYMKYFNLVTPNSPKVSYFSYGCSFVPKWYNVFCTPWKIVYERSKGCPNDGLVTINSSKWGEYRGTLKDMDHLDVINWKNKLQDDWSKFFRTTTVGEKVDILNFYLKITDDLARKGF
notes: Tgl2, putative mitochondrial triacylglycerol lipase of the intermembrane space, S. cerevisiae; also called HA-Tgl2; native-like HA-Tgl2; source: S. cerevisiae (tgl2Δ, yme1Δ and other deletion strains), overexpressed from plasmid pYX142; in whole cell lysate, crude or isolated mitochondria; not shown: HA, N-terminal, kept
As to B1, the “stoichiometry N” value amounted to 2.
